Results as given in paper PMC7335806 (2020).

B1: His-tagged human Sar1A (H79G) [human] / RRFR peptides (first intracellular loop of Fzd6) [mouse] (parent complex)
chain 1: not shown
chain 2: VRRFRYPERPC

Variants of: B1
Assay: peptide pull-down (peptides linked to thiopyridone-Sepharose 6B), immunoblot quantification; n = 3; parent: 1; read off a plot

ratio to parent | Variant
~0.08 | chain 2 R2A, chain 2 R3A, chain 2 R5A
